From patent US20260167699A1 (Chugai, published 2026)
Residue numbers refer to the chain shown, from its start. In names and notes the source's numbering stands.

B1: H240-Kn033/H240-Hl033/L73-k0 (antibody, human IgG1, kappa)
heavy 1: not shown
heavy 2: not shown
light: DIQMTQSPSSLSASVGDRVTITCRASQDIHKYIAWYQQKPGQAPRLLIQYTSTLQPGVPSRFSGSGSGTDYTFTISSLQPEDIATYYCLQYEQLRTFGGGTKVEIKRTVAAPSVFIFPPSDEQLKSGTASVVCLLNNFYPREAKVQWKVDNALQSGNSQESVTEQDSKDSTYSLSSTLTLSKADYEKHKVYACEVTHQGLSSPVTKSFNRGEC
notes: anti-epiregulin IgG1, knobs-into-holes control; also called H240-Kn033/H240-HI033/L73-k0
B2: H240-Kn032/H240-Hl032/L73-k0 (antibody, human IgG1, kappa)
heavy 1: QDQLVQSGAEVKKPGASVKVSCKASGFNIKDTYIQWVRQAPGQGLEWMGRIDPLRKQTKYREKFEGRVTITADTSTNTAYMELSSLRSEDTAVYYCVRSGREFDYWGQGTLVTVSSASTKGPSVFPLAPSSKSTSGGTAALGCLVKDYFPEPVTVSWNSGALTSGVHTFPAVLQSSGLYSLSSVVTVPSSSLGTQTYICNVNHKPSNTKVDKKVEPKSCDKTHTCPPCPAPELLGGPDVFLFPPKPKDTLMISRTPEVTCVVVDVSHEDPEVKFNWYVDGVEVHNAKTKPREEQYNSTYRVVSVLTVLHQDWLNGKEYKCKVSNKALPLPEEKTISKAKGQPREPQVCTLPPSRDELTKNQVSLWCLVKGFYPSDIAVEWESNGQPENNYKTTPPVLDSDGSFFLYSKLTVDKSRWQQGNVFSCSVMHEALHNHYTQKSLSLSP
heavy 2: B2 heavy 1 with C348Y, D355C, W365S, L367A, Y406V
light: B1 light
notes: anti-epiregulin IgG1 called homodimerized: S239D/A330L/I332E in both H chains, knobs-into-holes; also called H240-Kn032/H240-HI032/L73-k0
B3: H240-Kn061/H240-Hl071/L73-k0 (antibody, human IgG1, kappa)
heavy 1: B2 heavy 1 with L233Y, L234Y, G235W, D238S, H267D, S297A, L329A, E331I
heavy 2: B2 heavy 1 with D238S, K325D, L329M, E331I, K333E, C348Y, D355C, W365S, L367A, Y406V
light: B1 light
notes: heterodimerized anti-epiregulin IgG1; L234Y/L235Y/G236W/H268D/S298A in Kn061, K326D/A330M/K334E in Hl071; also called H240-Kn061/H240-HI071/L73-k0
B4: H240-Kn125/H240-Hl076/L73-k0 (antibody, human IgG1, kappa)
heavy 1: B2 heavy 1 with L233Y, L234Q, G235W, D238M, H267D, D269E, S297A, L329A, E331I
heavy 2: QDQLVQSGAEVKKPGASVKVSCKASGFNIKDTYIQWVRQAPGQGLEWMGRIDPLRKQTKYREKFEGRVTITADTSTNTAYMELSSLRSEDTAVYYCVRSGREFDYWGQGTLVTVSSASTKGPSVFPLAPSSKSTSGGTAALGCLVKDYFPEPVTVSWNSGALTSGVHTFPAVLQSSGLYSLSSVVTVPSSSLGTQTYICNVNHKPSNTKVDKKVEPKSCDKTHTCPPCPAPELLGGPSVFLFPPKPKDTLMISRTPEVTCVVVDVSHEEPEVKFNWYVDGVEVHNAKTKPREEQYNSTYRVVSVLTVLHQDWLNGKEYKCKVSNDALPMPIEETISKAKGQPREPQVYTLPPSRCELTKNQVSLSCAVKGFYPSDIAVEWESNGQPENNYKTTPPVLDSDGSFFLVSKLTVDKSRWQQGNVFSCSVMHEALHNHYTQKSLSLSP
light: B1 light
notes: heterodimerized anti-epiregulin IgG1
B5: GpH7-A57/GpH7-B78/GpL16-k0 (antibody, human IgG1, kappa)
heavy 1: QVQLVQSGAEVKKPGASVTVSCKASGYTFTDYEMHWIRQPPGEGLEWIGAIDPKTGDTAYSESFQDRVTLTADKSTSTAYMELSSLTSEDTAVYYCTRFYSYTYWGQGTLVTVSSASTKGPSVFPLAPSSKSTSGGTAALGCLVKDYFPEPVTVSWNSGALTSGVHTFPAVLQSSGLYSLSSVVTVPSSSLGTQTYICNVNHKPSNTKVDKKVEPKSCDKTHTCPPCPAPELLGGPDVFLFPPKPKDTLMISRTPEVTCVVVDVSHEDPEVKFNWYVDGVEVHNAKTKPREEQYNSTYRVVSVLTVLHQDWLNGKEYKCKVSNKALPLPEEKTISKAKGQPREPQVYTLPPSRKELTKNQVSLTCLVKGFYPSDIAVEWESNGQPENNYKTTPPVLDSDGSFFLYSKLTVDKSRWQQGNVFSCSVMHEALHNRYTQKSLSLSP
heavy 2: B5 heavy 1 with K354D, R433H, K437E
light: DIVMTQSPLSLPVTPGEPASISCQASESLVHSNRNTYLHWYLQKPGQSPQLLIYKVSNRFSGVPDRFSGSGSGTDFTLKISRVEAEDVGVYYCSQNTHVPPTFGQGTKVEIERTVAAPSVFIFPPSDEQLKSGTASVVCLLNNFYPREAKVQWKVDNALQSGNSQESVTEQDSKDSTYSLSSTLTLSKADYEKHKVYACEVTHQGLSSPVTKSFNRGEC
notes: Called homodimerized: S239D, A330L, I332E in both H chains
B6: GpH7-TA7/GpH7-B78/GpL16-k0 (antibody, human IgG1, kappa)
heavy 1: B5 heavy 1 with L232Y, G234W, D237S, S296A, L328A, E330I
heavy 2: B5 heavy 1 with K354D, R433H, K437E
light: B5 light
notes: L234Y, G236W, S298A in one H chain and S239D, A330L, I332E in the other

Target: T1, FcγRIIIa(F) extracellular domain with C-terminal His tag (human, UniProt P08637 17-208)
T1 construct: extracellular domain; polymorphic form F158; also called FcγRIIIa F type
T1 sequence (P08637 other isoform, or with tags, fused parts or gaps): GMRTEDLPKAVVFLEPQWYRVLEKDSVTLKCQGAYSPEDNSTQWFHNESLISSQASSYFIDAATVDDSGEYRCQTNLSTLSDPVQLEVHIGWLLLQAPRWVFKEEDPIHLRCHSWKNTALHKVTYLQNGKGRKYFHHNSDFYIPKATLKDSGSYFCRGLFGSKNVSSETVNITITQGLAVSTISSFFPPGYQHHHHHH
Assay: SPR (Biacore), captured antibody, FcγR analyte, 1:1 Langmuir fit
Procedure: (§1) The antibody of interest was analyzed for its interaction with FcγR using a BiaCore™ T100, BiaCore™ A100, or BiaCore™ 4000 surface plasmon resonance system (GE Healthcare Japan Corp.). The running buffer used was HBS-EP+ (GE Healthcare Japan Corp.). The assay temperature was set to 25° C. The sensor chips used were: a chip prepared by immobilizing antigenic peptides onto Series S Sensor Chip CM5 (GE Healthcare Japan Corp.) by the amine coupling method; a chip prepared by immobilizing antigenic peptides biotinylated in advance onto Series S Sensor Chip SA (certified) (GE Healthcare Japan Corp.) through their interaction; a chip prepared by immobilizing protein L (ACTIGEN, BioVision, Inc.) onto Series S Sensor Chip CM5 (GE Healthcare Japan Corp.); and a chip prepared by immobilizing protein A/G (Thermo Fisher Scientific K.K.) onto Series S Sensor Chip CM5 (GE Healthcare Japan Corp.). The antibody of interest was captured onto any of these chips and allowed to interact with FcγR diluted with a running buffer. The antibody captured on the chip was washed off through the reaction of 10 mM glycine-HCl (pH 1.5) to regenerate the chip, which was repetitively used.

Row | Kd | Binder
1 | 2600 nM | B1
2 | 9.1 nM | B2
3 | 5.1 nM | B3
4 | 1.2 nM | B4

Target: T2, FcγRIIa(R) extracellular domain with C-terminal His tag (human, UniProt P12318 34-217)
T2 construct: extracellular domain; polymorphic form R131; also called FcγRIIa R type
T2 sequence: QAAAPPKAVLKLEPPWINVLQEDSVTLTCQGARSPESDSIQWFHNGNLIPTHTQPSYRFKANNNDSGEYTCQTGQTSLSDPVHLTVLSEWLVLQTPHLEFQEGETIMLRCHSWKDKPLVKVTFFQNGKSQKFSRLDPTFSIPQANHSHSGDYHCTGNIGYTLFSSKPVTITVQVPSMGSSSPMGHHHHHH
Assay: as above
Procedure: as §1

Row | Kd | Binder
5 | 1000 nM | B1
6 | 340 nM | B2
7 | 350 nM | B3
8 | 380 nM | B4

Target: T3, FcγRIIIa(V) extracellular domain with C-terminal His tag (human, UniProt P08637 17-208)
T3 construct: extracellular domain; polymorphic form V158; also called FcγRIIIa V type
T3 sequence (P08637 other isoform, or with tags, fused parts or gaps): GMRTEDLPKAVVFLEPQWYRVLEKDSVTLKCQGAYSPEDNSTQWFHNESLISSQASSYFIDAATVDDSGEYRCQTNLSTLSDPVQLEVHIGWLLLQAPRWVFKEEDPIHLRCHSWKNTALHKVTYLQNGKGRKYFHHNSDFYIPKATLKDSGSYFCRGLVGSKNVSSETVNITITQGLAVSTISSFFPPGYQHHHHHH
Assay: as above
Procedure: as §1

Row | Kd | Binder
9 | 390 nM | B1
10 | 3.1 nM | B2
11 | 1.8 nM | B3
12 | 0.37 nM | B4

Target: T4, FcγRIIa(H) extracellular domain with C-terminal His tag (human, UniProt P12318 34-217)
T4 construct: extracellular domain; polymorphic form H131; also called FcγRIIa H type
T4 sequence: T2 sequence with R134H
Assay: as above
Procedure: as §1

Row | Kd | Binder
13 | 930 nM | B1
14 | 690 nM | B2
15 | 280 nM | B3
16 | 190 nM | B4

Target: T5, FcγRIa extracellular domain with C-terminal His tag (human, UniProt P12314 16-292)
T5 construct: extracellular domain
T5 sequence (P12314 other isoform, or with tags, fused parts or gaps): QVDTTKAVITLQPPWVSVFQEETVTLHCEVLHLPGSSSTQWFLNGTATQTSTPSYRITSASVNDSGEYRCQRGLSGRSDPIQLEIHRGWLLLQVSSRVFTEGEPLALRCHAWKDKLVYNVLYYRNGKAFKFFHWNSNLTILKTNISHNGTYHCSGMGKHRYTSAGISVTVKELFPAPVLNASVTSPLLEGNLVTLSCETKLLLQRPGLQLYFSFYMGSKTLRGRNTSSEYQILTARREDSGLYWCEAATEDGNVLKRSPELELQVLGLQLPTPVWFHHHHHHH
Assay: as above
Procedure: as §1

Row | Kd | Binder
17 | 0.25 nM | B1
18 | 0.073 nM | B2
19 | 0.14 nM | B3
20 | 0.24 nM | B4

Target: T6, FcγRIIb extracellular domain with C-terminal His tag (human, UniProt P31994 43-217)
T6 construct: extracellular domain
T6 sequence: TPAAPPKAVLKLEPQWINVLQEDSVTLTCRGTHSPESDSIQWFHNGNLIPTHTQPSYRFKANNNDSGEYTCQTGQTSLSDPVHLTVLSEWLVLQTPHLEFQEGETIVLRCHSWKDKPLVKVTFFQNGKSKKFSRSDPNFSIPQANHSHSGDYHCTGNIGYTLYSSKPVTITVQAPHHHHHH
Assay: as above
Procedure: as §1

Row | Kd | Binder
21 | 4100 nM | B1
22 | 620 nM | B2
23 | 1200 nM | B3
24 | 4200 nM | B4

Target: T7, FcγRIIIa extracellular domain with C-terminal His tag (allotype not given) (UniProt P08637 17-208, limits assumed)
T7 construct: extracellular domain; also called 3a
Assay: SPR (Biacore), from the KD values of Table 5

Row | fold FcγRIIIa-binding activity against the corresponding heterodimerized antibody (GpH7-A5/GpH7-B78/GpL16-k0) | fold FcγRIIIa-binding activity against GpH7-A5/GpH7-B78/GpL16-k0 | Binder
25 | ~9 times | – | B5
26 | – | ≥ 10 times | B6

Target: T1, FcγRIIIa(F) extracellular domain with …
Assay: SPR (Biacore), captured antibody, FcγR analyte, 1:1 Langmuir fit
Remark: another data set of the same source
Procedure: as §1

Row | Kd | Binder
27 | 2600 nM | B1
28 | 9.1 nM | B2
29 | 5.1 nM | B3

Target: T2, FcγRIIa(R) extracellular domain with …
Assay: as above
Remark: another data set of the same source
Procedure: as §1

Row | Kd | Binder
30 | 1000 nM | B1
31 | 340 nM | B2
32 | 350 nM | B3

Target: T3, FcγRIIIa(V) extracellular domain with …
Assay: as above
Remark: another data set of the same source
Procedure: as §1

Row | Kd | Binder
33 | 390 nM | B1
34 | 3.1 nM | B2
35 | 1.8 nM | B3

Target: T4, FcγRIIa(H) extracellular domain with …
Assay: as above
Remark: another data set of the same source
Procedure: as §1

Row | Kd | Binder
36 | 930 nM | B1
37 | 690 nM | B2
38 | 280 nM | B3

Target: T5, FcγRIa extracellular domain with …
Assay: as above
Remark: another data set of the same source
Procedure: as §1

Row | Kd | Binder
39 | 0.25 nM | B1
40 | 0.073 nM | B2
41 | 0.14 nM | B3

Target: T6, FcγRIIb extracellular domain with …
Assay: as above
Remark: another data set of the same source
Procedure: as §1

Row | Kd | Binder
42 | 4100 nM | B1
43 | 620 nM | B2
44 | 1200 nM | B3
